This note sets out measurements from the DeepSol protein solubility set.

The nature of the series: soluble on expression in E. coli; label from the status in PepcDB or PDB records.
Regarding “MKEKEHQSIEWKESWQDEYLKWICGYANAYGGTIYIGTDDDGNVVGIDNARDLLERIPNKITDTMGIIVDVNLLYKGELEYLQIIVDKYPSLISFRGKYYYRSGSTMREITGKELERALLKTQGRTWDGVPLPKLTVADLKQDAIQLFKDKAVKRGRLTKEEVSVEDTILMDNLHLIDEDGYLIRAAMLAFYKDPEKWVTGSYIKIGYFGKSDSDLVYQDEVHGPLIEQVDKTVDLVYTKYMKALIDYEGVQRIEQFMFHKDAFREILLNAVVHKDYSSCNPIQISVYEDKIYIWNDGEMPPNLDSTDKLFMKHSSKPYNPKLANVFFKSGMIEAWGRGFEKIREACALYDGPLPEYEINEAGIMVLCKACDKYLGLLRNDGQHHGQCDQEGDHDEEQDIMRQIIAFCMEPKTASEIMQKFNLERSYFRRHYLNKMLKTGKLQRTEPDKPKSKNQKYYS”, the “soluble on expression in E. coli” value is on record as “not soluble”.

On to “MGLMKFQLFIQPKLDVLQGNIVEYEILLRDDSAVPRFPLSELEAVLADEELYLAFSEWFSEAFLDVLKKYPNDRFAINIAPQQLFYIETLHWLDKLKSESHRITVEMTEDIFDVPGHKRHLNANDKNAFILNKIKVIHGLGYHIAIDDVSCGLNSLERVMSYLPYIIEIKFSLIHFKNIPLEDLLLFIKAWANFAQKNKLDFVVEGIETKETMTLLESHGVSIFQGYLVNKPFPV”, for which the “soluble on expression in E. coli” value was “soluble”.

On to “MGESIPLAAPVPVEQAVLETFFSHLGIFSYDKAKDNVEKEREADKSAGGSWLSLLAALAHLAAAEKVYHSLTYLGQKLGGQSFFSRKDSIRTIYTSLHNELKKVVTGRGALGGTAPHVEELLSHLSEQLCFFVQARMEIADFYEKMYTLSTQKFINAEELVGLLDAIMKKYSSRFHHPILSPLESSFQLEVDVLCHLLKAQAQVSEWKFLPSLVNLHSAHTKLQTWGQIFEKQRETKKHLFGGQSQKAVQPPHLFLWLMKLKNMLLAKFSFYFHEALSRQTTASEMKTLTAKANPDFFGKISSFIRKYDAANVSLIFDNRGSESSQGHGYHHPHSYREAPKGVDQYPAVVSLPSDRPVMHWPNVIMIMTDRTSDLNSLEKVVHFYDDKVQSTYFLTRPEPHFTIVIIFESKKSERDSHFISFLNEVSLALKNPKVFASLKPGSKGSCYQCNYFVAFCLDYSKLLLQRK”, for which the “soluble on expression in E. coli” value is reported as “not soluble”.

As to “MSLQWECWPSLPCWRCFAASGRITLSIKRFTQNSRRHDMKITKINAIPLSYRLPEGKTVTMGVGSTIKRDAIIIRVETSEGITGYGEAHPGRSPGAITSLIHNTIAPMLIGMKATDCVGAWQRVHRMQLSSHGLGAGAALAISGIDMALWDIRGKAANMPLYELLGGSKRRIPAYAGGIALGYQPKESLAEEAQEYIARGYKALKLRIGDAARVDIERVRHVRKVLGDEVDILTDANTAYTMADARRVLPVLAEIQAGWLEEPFACNDFASYREVAKITPLVPIAAGENHYTRFEFGQMLDAGAVQVWQPDLSKCGGITEGIRIAAMASAYRIPINAHSSATGLNHAATIHFLAATENAGYFEACVSKFNPFRDMFGTSFEIGADGCVEPPDAPGLGIEVDESIFEKYPAVDGPGYVVKFEGHHHHHH”, the “soluble on expression in E. coli” value is “soluble”.

Regarding “MSLAVKPIPEGQHSITPYLAINDAAKAIEFYKQAFGAKEMFRLDAPGGRVGHAELRIGDSSLMLGDPCDMEGGLTASQKLSGAGVGLHLYVEDCDKVYAQALAAGGIQLHPLTDQFYGDRSGTLKDPFGNIWFVSTHKEDLTPDEIRARAAKMFGEGHHHHHH”, the “soluble on expression in E. coli” value is “soluble”.

As for “MGSDKIHHHHHHENLYFQGMIESIQELLQKEAQAVLNIPVTDAYEKAVELIVEQIHRKKGKLVTSGMGKAGQIAMNIATTFCSTGIPSVFLHPSEAQHGDLGILQENDLLLLISNSGKTREIVELTQLAHNLNPGLKFIVITGNPDSPLASESDVCLSTGHPAEVCTLGMTPTTSTTVMTVIGDILVVQTMKRTEFTIEEYSKRHHGGYLGEKSRKLCVK”, the “soluble on expression in E. coli” value is listed as “soluble”.

As for “MAHHHHHHMKQIDQLIIEEADENTIIPYYLSNLLTNASNPVVFMDVNLGNHFLGKFKFELFQNIVPKTSENFRQFCTGEYKVNNLPVGYKNTTFHRVIKEFMIQGGDFVNYNGSGSLSIYGEIFEDENFDVKHDQEGLLSMANSGPNTNGCQFFITTKKCEWLDGKNVVFGRIIDSDSLILLKKIENVSVTPYIYKPKIPINIVECGEL”, the “soluble on expression in E. coli” value is “not soluble”.

For “MSAITITEAAQAYLAELLEKQSTPGIGIRIFITQPGTQYAETCIAYCKPGEEKVEDTAIALKDFTAWIDAVSEPFLEDAVVDYATDRMGGQLTIKAPNAKVPMVNEDSPITERINYYLQTEINPGLASHGGQVSLVDVVEDNIAVLRFGGGCQGCGMVDMTLKDGVEKTLIERIPELKGVRDVTDHSNKENAYY”, the “soluble on expression in E. coli” value was “not soluble”.

For “GMKNIKIMRLVTGEDIIGNISESQGLITIKKAFVIIPMQATPGKPVQLVLSPWQPYTDDKEIVIDDSKVITITSPKDDIIKSYESHTSEIITPSGLITET”, the “soluble on expression in E. coli” value is reported as “soluble”.

Take “MTESTFPQYPRLVLSKGREKSLLRRHPWVFSGAVSRLEGKANLGETIDIVDHQGKWLARGAWSPASQIRARVWTFDKAESIDIAFFTRRLRQAQQWRDWLAKKDGLDSYRLIAGESDGLPGVTIDRFGHFLVLQLLSAGAEYQRAALISALQTCYPDCAIYDRSDVAVRKKEGMALTQGPVTGELPPALLPIEEHGMKLLVDIQGGHKTGYYLDQRDSRLATRRYVENQRVLNCFSYTGGFAVSALMGGCRQVVSVDTSQDALDIARQNVELNQLDLSKAEFVRDDVFKLLRAYREHGEKFDVIIMDPPKFVENKSQLMGACRGYKDINMLAIQLLNPGGILLTFSCSGLMTSDLFQKIIADAAIDAGRDVQFIEQFRQAADHPVIATYPEGLYLKGFACRVM”: the “soluble on expression in E. coli” value is on record as “not soluble”.

As to “AEMEVQIVRNDPPLRYDTNLPVDLLHMVYAGRGATGSSGVVFGTWYRTIQDRTITDFPLTTRSADFRDGRMSKTFMTALVLSLQACGRLYVGQRHYSAFECAVLCLYLLYRNTHGAADDSDRAPVTFGDLLGRLPRYLACLAAVIGTEGGRPQYRYRDDKLPKTQFAAGGGRYEHGALASHIVIATLMHHGVLPAAPGDVPRDASTHVNPDGVAHHDDINRAAAAFLSRGHNLFLWEDQTLLRATANTITALGVIQRLLANGNVYADRLNNRLQLGMLIPGAVPSEAIARGASGSDSGAIKSGDNNLEALCANYVLPLYRADPAVELTQLFPGLAALCLDAQAGRPVGSTRRVVDMSSGARQAALVRLTALELINRTRTNPTPVGEVIHAHDALAIQYEQGLGLLAQQARIGLGSNTKRFSAFNVSSDYDMLYFLCLGFIPQYLSAV”, the “soluble on expression in E. coli” value is recorded as “soluble”.

For the sequence “MSSAIERKSLDPSEEPVDEVLQIPPSLLTCGGCQQNIGDRYFLKAIDQYWHEDCLSCDLCGCRLGEVGRRLYYKLGRKLCRRDYLRLFGQDGLCASCDKRIRAYEMTMRVKDKVYHLECFKCAACQKHFCVGDRYLLINSDIVCEQDIYEWTKINGMI”, the “soluble on expression in E. coli” value is “not soluble”.

With “MYSANRSHRAETRNRSKDELRKVINSLEKVRRWEKKLVLIKDTNIRIYKWVPVSAQNIMAPPKIKEVKEVDEESNQVPSAENSQDSTSVTQPPPQFDINEDSNFSTGDHFDSDSNQTFEPQNYQGGATGSTDFSSMRDAEMTSKQP”, the “soluble on expression in E. coli” value is “not soluble”.

Consider “MGSDKIHHHHHHMADRIEFVKNYSDLSTNKGFQFEFYCDRCGSGYRTRFKPSITGTVTGVLDTAGSLLGGLFSSAADVSERVRSASWEKSHDDAFEDACNELKPDFIQCPRCSSWVCRQKCWNKKKGLCKECAPDLGVEMAAAQASKSVEEIWAHAAMAEEDKKLGLENWRENVRASCPECEAPLASNAKFCPECGAKLKAAQFCPSCGAKVNPGSKFCAECGEKF”, for which the “soluble on expression in E. coli” value is recorded as “not soluble”.

As to “QEGYPFPSFHLRGTHPYRSILVSANTEALSPLLASAMDLARIFGSEVYVLFVSRVEAFMPPEEKELLENLKVLVERARKTSGLEVHLIRKEGNPVRETLRLLKGKFNLLALGYTPGRRTAFFRPYVPQLLAQASPVSTLLVPEVNLER”, the “soluble on expression in E. coli” value is “not soluble”.

Turning to “PSRPVRPNNRCFSCNKKVGVMGFKCKCGSTFCGSHRYPEKHECSFDFKEVG”, the “soluble on expression in E. coli” value is on record as “soluble”.

With “MEIERINEHTVKFYISYVDIEERGFDREEIWYNRERSEELFWEMMDEVHGESDFSLDGPLWIQVQALEKGLEVVVTKAQLSKDGSKLELPLPEEKWREFSLSADEKVESLFGHHFHFGQNGDAEEREEQDVLRFILSFKDIEDVISLAHRADFSRLSNRLFQFEGRYYLFVEFDERYTEQEVDNMLSLLLEYGSDSQLTIYRLEEYGTEIMGDNALETIKTYFPAS”, the “soluble on expression in E. coli” value was “not soluble”.

For “MSNWPYPHIVAHRGGGKLAPENTLAAIDVGARYGHTMIEFDAKLSKDGEIFLLHDDNLERTSNGWGVAGELNWQDLLRVDAGGWFSGEFKGEPLPLLSQVAERCRKHGMMANIEIKPTTGSGRLTGRVVALAARELWAGMTPPLLSSFEIEALEAAQAAAPELPRGLLLDKWREDWRELTTRLGCVSLHLNHKLLDETRVQEIKAAGLRILVYTVNQPQRAAELLRWGVDCICTDRIDDIGPHFQF”, the “soluble on expression in E. coli” value is “not soluble”.

On to “MGSDKIHHHHHHMNTRDLDYFRALVDCQNYTMVAKQFAVSQPAVTQAIHRLEKEFAVKLVIQDRRHQQTNITRAGQLLYKNARQIQASLQLAHREIQSTLQTDIRFGLPPIIGTLYFPQIAEKLLQNGLLQQLKITETGSDELLRKLVHGEINIALLGSYLPFDLPTVRAVHLGARPFSIIVSPQNSLAKQAAVSFKNLGQAQFIGLDGKYVHPQAFRAYCDFAGVHPEVIYRTPDISWVKALVKANLGISLLVRDVVKADDGVVCLEIKDQLPVSFNISVVTRAGYLPTTDEQRFIDQLLKMKI”, for which the “soluble on expression in E. coli” value is listed as “not soluble”.

For the sequence “MSLTNLPEDRTGEEIRDAIKIDGEAVRGHLDELVRSTVEETLNQMLDAEADQICKAKRYERSPDRVDSRAGSYSRKLQTKAGEVSLKVPQLRSLPLETQIIERYKRRESSVEEALVEMYLAGVSVRRVEDITEALWGTRVSSSTVSELNQKIYERIDVWRNRPLEGEHPYVMLDGIWLKRSWGGEVKNIAVLVAVGVRSDGHREILSVAEGTKEDSESWRTFLRHLKERGLQGVRLITSDKCLGLVEALGEFFPEAAWQRCIVHFYRNVLKDVPRSKSRDVAAMLKAVHAQEDRTAATEKAEQVAEKLASLRLGNAAKCFRAGVQETLAYMNFPREHWTRLRSNNMLERIMKEIRRRTRVVGAFPDGQSALMLVAARLRHIAGTHWGTRRYLDMDRLHEPEEREDHEGHHHHHH”, the “soluble on expression in E. coli” value is on record as “soluble”.

“MGSDKIHHHHHHMGKLLAINISKERGTEKREVPQAELVADYGIMGDAHAGKWHRQVSLLSAEKIDAFRARGAQIDNGAFGENLIISGFDFKNLPLGTRFCIGDAILEMTQIGKQCHSHCAIYKRMGECIMPKEGVFAVVIRGGQIHTGDEVKLIPANIYASIKDRPADSRCELLTVTEGAHAGEKALYIDGRIRVASGSAWADEINDNDNSIVMFKQQIGSRPRLIICGGGHVSAALVRMASLLAFDIWVIEDRPLFADNAKRQGADHVICGDYKKTLARLEPQADDYYVCMTRGHRFDMECLTEIFRKPYAYVGMMGSKKRAAIVKKDLEESGFSRENISGLHSPIGLAIGGQTPEEIALSVISEIVKCKNERTGCTQVDNEVLDALIEASDEKYILCTIIKKNGSAPRGVGTQMLVSSDNRIIGTIGGGCAEAEVISQCRRLFRKQEFKCGLMDVSMNTDDAEKEGMVCGGSISVLLEQLG”: the “soluble on expression in E. coli” value is “not soluble”.

With “MIKIAITKGRIQKQVTKLLENADYDVEPILNLGRELQIKTKDDLQIIFGKPNDVITFLEHGIVDIGFVGKDTLDENDFDDYYELLYLKIGQCIFALASYPDFSNKNFQRHKRIASKYPRVTKKYFAQKQEDIEIIKLEGSVELGPVVGLADAIVDIVETGNTLSANGLEVIEKISDISTRMIVNKSSFKFKKDKIIEMVERLEDAQTN”, the “soluble on expression in E. coli” value was “soluble”.
